Among the data in PMC11467351 are stoichiometry N values, retold here.

For orientation: stoichiometry N means a count of units in the complex or per binding partner.

This assay concerns the target ButCD complex of B. fragilis GS077 (B. fragilis GS077 (endogenous)). Kind of assay: cryo-EM structure.

In turn, ButCD complex of B. fragilis GS077 came in with a stoichiometry N of 2.
